Biological target: IL-6R (UniProt P08887)
Test: cell-based or functional assay

Chain of IL-6R (P08887 20-468 limits assumed): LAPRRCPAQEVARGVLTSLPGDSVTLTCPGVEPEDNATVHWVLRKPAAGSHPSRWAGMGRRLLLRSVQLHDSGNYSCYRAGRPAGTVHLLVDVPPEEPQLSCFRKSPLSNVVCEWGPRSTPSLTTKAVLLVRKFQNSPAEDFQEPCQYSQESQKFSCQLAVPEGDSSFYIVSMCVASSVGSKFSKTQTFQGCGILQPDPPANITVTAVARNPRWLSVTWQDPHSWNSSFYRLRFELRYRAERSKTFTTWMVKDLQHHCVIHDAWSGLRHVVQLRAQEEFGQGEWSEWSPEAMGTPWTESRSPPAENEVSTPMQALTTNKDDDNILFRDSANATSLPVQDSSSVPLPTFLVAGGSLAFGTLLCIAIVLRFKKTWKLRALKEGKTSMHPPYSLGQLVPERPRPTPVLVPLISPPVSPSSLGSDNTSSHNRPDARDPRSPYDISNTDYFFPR

Tocilizumab (antibody)
Relative IL-6 Inhibition (%) of IL-6-dependent U266B1 cell proliferation, Tocilizumab at 1 µg/mL (6.7 × 10^-9 M): 15.1% | Relative IL-6 Inhibition (%) of IL-6-dependent U266B1 cell proliferation, Tocilizumab at 10 µg/mL (6.7 × 10^-8 M): 60.7% | Relative IL-6 Inhibition (%) of IL-6-dependent U266B1 cell proliferation, Tocilizumab at 100 µg/mL (6.7 × 10^-7 M): 57%
